Substitutions are numbered along the chain they refer to.

To fix the notation:
B1: TGM-D2 (domain or fragment)
chain: RCSPLPTNDTVSFEYLKATVNPGIIFNITVHPDASGKYPELTYIKRICKNFPTDSNVQGHIIGMCYNAEWQFSSTPTCPAS
modifications: refolded from E. coli, disulfide-bonded; limits set between D1 (ends at 95) and D3 (starts at about 177); vector residues left after thrombin cleavage omitted
B2: TβRI ectodomain (receptor)
chain: LQCFCHLCTKDNFTCVTDGLCFVSVTETTDKVIHNSMCIAEIDLIPRDRPFVCAPSSKTGSVTTTYCCNQDHCNKIELPTTVKSSPGLGPVEL
notes: also called TGF-β type I receptor
B3: biotinylated avi-tagged TGM-D3 (domain or fragment)
chain: GSGTGCPPLPDDGIVFYEYYGYAGDRHTVGPVVTKDSSGNYPSPTHARRRCRALSQEADPGEFVAICYKSGTTGESHWEYYKNIGKCPDP
modifications: a single biotin on the avi tag (BirA)
notes: also called TGM-D3 (SPR surface); not shown: Thioredoxin, N-terminal, cleaved; His6, N-terminal, cleaved
B4: TGM-D3 (domain or fragment)
chain: B3 chain
notes: also called WT TGM-D3; domain 3 of H. polygyrus TGF-β mimic; not shown: Thioredoxin, N-terminal, cleaved; His6, N-terminal, cleaved
B5: TGM-D3 F235A (domain or fragment)
chain: B3 chain with F63A
notes: also called Phe235Ala; not shown: Thioredoxin, N-terminal, cleaved; His6, N-terminal, cleaved
B6: TGM-D3 N255A (domain or fragment)
chain: B3 chain with N83A
notes: also called Asn255Ala; not shown: Thioredoxin, N-terminal, cleaved; His6, N-terminal, cleaved
B7: TGM-D3 K258A (domain or fragment)
chain: B3 chain with K86A
notes: also called Lys258Ala; not shown: Thioredoxin, N-terminal, cleaved; His6, N-terminal, cleaved
B8: TGM-D3 V236A (domain or fragment)
chain: B3 chain with V64A
notes: also called Val236Ala; not shown: Thioredoxin, N-terminal, cleaved; His6, N-terminal, cleaved
B9: TGM-D3 Y252A (domain or fragment)
chain: B3 chain with Y80A
notes: not shown: Thioredoxin, N-terminal, cleaved; His6, N-terminal, cleaved
B10: TGM-D3 I238A (domain or fragment)
chain: B3 chain with I66A
notes: as for B9
B11: TGM-D3 K254A (domain or fragment)
chain: B3 chain with K82A
notes: also called Lys254Ala; not shown: Thioredoxin, N-terminal, cleaved; His6, N-terminal, cleaved
B12: TGM-D3 H199A (domain or fragment)
chain: B3 chain with H27A
notes: also called His199Ala; not shown: Thioredoxin, N-terminal, cleaved; His6, N-terminal, cleaved
B13: TGM-D3 I256A (domain or fragment)
chain: B3 chain with I84A
notes: also called Ile256Ala; not shown: Thioredoxin, N-terminal, cleaved; His6, N-terminal, cleaved
B14: TGM-D12 (domain or fragment)
chain: DDSGCMPFSDEAATYKYVAKGPKNIEIPAQIDNSGMYPDYTHVKRFCKGLHGEDTTGWFVGICLASQWYYYEGVQECDDRRCSPLPTNDTVSFEYLKATVNPGIIFNITVHPDASGKYPELTYIKRICKNFPTDSNVQGHIIGMCYNAEWQFSSTPTCPAS
modifications: refolded from E. coli, disulfide-bonded; start from the listed D1 range (16-95), end set just before D3 (Cys178 is the first D3 cysteine; 7SXB places D3 at about 177-262); vector residues left after …

Holding throughout (conditions): both partners purified
Assay [1] addresses B2. As to the kind of experiment: ITC; TGM construct titrated into TβRI in the cell; 25 mM Hepes, 50 mM NaCl, 0.05% NaN3, pH 7.5, 25 °C; 1:1 model. A general note: In ITC the heat of successive injections is recorded.
Assay [2] concerns the target B1. As to the kind of experiment: NMR titration; 1H-15N HSQC of 15N TGM-D2 or 15N TGM-D3 with 0 to 1.4 equivalents of unlabeled TβRI; 25 mM sodium phosphate, 50 mM NaCl, pH 7.0, 310 K (legend of Figure 3).
The target of assay [3] is T1, TβRII I73A (UniProt P37173 23-166, I73A).
T1 construct: also called Ile73Ala
Briefly: SPR; biotinylated avi-tagged TGM-D3 captured (50-150 RU) on a neutravidin-coated CM-5 chip, TβRII and its variants injected; 25 mM Hepes, pH 7.4, 150 mM NaCl, 0.05% surfactant P20, 100 µl/min; 1:1 kinetic fit of duplicate or triplicate injection series.

Assay [4] has as its target T2, TβRII I76A (UniProt P37173 23-166, I76A).
T2 construct: also called Ile76Ala
The assay is described as above.

Assay [5] addresses T3, TβRII D55N (UniProt P37173 23-166, D55N).
T3 construct: also called Asp55Asn
The description is as above.

The target in assay [6] is T4, TβRII E142Q (UniProt P37173 23-166, E142Q).
T4 construct: also called Glu142Gln
Described as above.

The target of assay [7] is T5, TβRII S75L (UniProt P37173 23-166, S75L).
T5 construct: also called Ser75Leu
The assay is described as above.

Assay [8] deals with T6, TβRII ectodomain (UniProt P37173 23-166).
T6 construct: also called WT TβRII; TGF-β type II receptor
Described as above.

For assay [9], the target named is T6, TβRII ectodomain. As to the kind of experiment: ITC; TGM construct in the syringe (300-320 µM), 15 µM TβRII in the cell; 25 mM sodium phosphate, 50 mM NaCl, pH 6.0, 35 °C; 1:1 model (Nitpic, Sedphat).
For assay [10], the target named is T7, biotinylated avi-tagged TβRII (UniProt P37173 23-166, a single biotin on the avi tag (BirA)).
T7 construct: also called TβRII (SPR surface)
As to the kind of experiment: SPR; biotinylated avi-tagged TβRII captured (50-150 RU) on a neutravidin-coated CM-5 chip, TGM-D3 and its variants injected; 25 mM Hepes, pH 7.4, 150 mM NaCl, 0.05% surfactant P20, 100 µl/min; 1:1 kinetic fit of duplicate or triplicate injection series. (In general: In SPR one partner is held on a chip, and binding of the other changes the refractive index at the surface.)

T3 sequence (P37173 23-166 D55N): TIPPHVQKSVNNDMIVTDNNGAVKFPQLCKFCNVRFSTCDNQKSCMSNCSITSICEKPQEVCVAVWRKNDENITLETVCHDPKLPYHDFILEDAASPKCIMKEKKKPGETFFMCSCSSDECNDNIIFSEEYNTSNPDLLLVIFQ
T1 sequence (P37173 23-166 I73A): as the sequence (P37173 23-166 D55N) above, with N33D, I51A counted along it
T7 sequence (P37173 23-166): as the sequence (P37173 23-166 D55N) above, with N33D counted along it
T6 sequence (P37173 23-166): as the sequence (P37173 23-166 D55N) above, with N33D counted along it
T2 sequence (P37173 23-166 I76A): as the sequence (P37173 23-166 D55N) above, with N33D, I54A counted along it
T5 sequence (P37173 23-166 S75L): as the sequence (P37173 23-166 D55N) above, with N33D, S53L counted along it
T4 sequence (P37173 23-166 E142Q): as the sequence (P37173 23-166 D55N) above, with N33D, E120Q counted along it

By stoichiometry N is commonly meant the number of molecules, sites or subunits per partner or assembly. B1: in [1], the “fold increase of KD against TGM-FL” value is around 50 fold and the “stoichiometry N” value was around 0.5.

B2: in assay [2], the “stoichiometry N” value was determined as 1.

A word on the Kd: it is a measure of binding affinity in units of concentration. The low end stands for higher affinity, the high end for lower affinity. What is called koff is the rate constant with which the complex falls apart. A higher koff goes with a short-lived complex. In general, kon refers to the rate constant with which the complex forms. Low values mean slow association, high ones fast association. With B3, the Kd in assay [3] is 6.9 ± 0.1 µM; in assay [4], 26 ± 1 µM; in assay [5], 63 ± 1 µM; in assay [6], 17 ± 1 µM; in [7], 310 ± 30 µM; in assay [8] it was 1600 ± 100 nM. Moreover, the koff turned out to be 1.1 ± 0.1 s⁻¹ in assay [3]; 1.2 ± 0.1 s⁻¹ in assay [4]; 3.1 ± 0.1 s⁻¹ in assay [5]; 10 ± 10 s⁻¹ in assay [6]; 3.9 ± 0.9 s⁻¹ in assay [7]; 0.7 ± 0.1 s⁻¹ in [8]. For the same molecule, the kon turned out to be 160000 M⁻¹ s⁻¹ in assay [3]; 47000 M⁻¹ s⁻¹ in [4]; 50000 M⁻¹ s⁻¹ in [5]; 410000 M⁻¹ s⁻¹ in assay [6]; 13000 M⁻¹ s⁻¹ in assay [7]; 410000 M⁻¹ s⁻¹ in assay [8].

Consider B4, for which, in assay [9], the Kd is 1200 nM and the “stoichiometry N” value is 1.1. Also, in [10], the Kd turned out to be 1.6 ± 0.1 µM, the koff was found to be 0.26 ± 0.01 s⁻¹ and the kon came to 160000 M⁻¹ s⁻¹.

In assay [10], B5 had a Kd of 4.1 ± 0.1 µM, a koff of 1.8 ± 0.2 s⁻¹ and an association rate constant (kon) of 450000 M⁻¹ s⁻¹.

On to B6, for which, in assay [10], binding was characterised by a dissociation constant (Kd) of 2.7 ± 0.1 µM, the koff came out at 1.3 ± 0.1 s⁻¹ and the kon was 480000 M⁻¹ s⁻¹.

In assay [10], B7 showed a Kd of 2.7 ± 0.1 µM, a koff of 1.2 ± 0.1 s⁻¹ and a kon of 430000 M⁻¹ s⁻¹.

Regarding B8, in [10], the Kd was 4.6 ± 0.1 µM, the koff was found to be 1.8 ± 0.1 s⁻¹ and the kon came to 380000 M⁻¹ s⁻¹.

Regarding B9, in [10], the Kd was 21 ± 1 µM, the koff was 1.7 ± 0.1 s⁻¹ and the kon came out at 78000 M⁻¹ s⁻¹.

Take B10: in assay [10], binding was put at a Kd of 25 ± 1 µM, the koff was 2.3 ± 0.1 s⁻¹ and the kon was 94000 M⁻¹ s⁻¹.

In assay [10], B11 registered a Kd of 35 ± 1 µM, a koff of 12 ± 6 s⁻¹ and a kon of 300000 M⁻¹ s⁻¹.

Consider B12, for which, in assay [10], the Kd is 3 ± 0.1 µM, the koff turned out to be 0.98 ± 0.01 s⁻¹ and the kon came to 330000 M⁻¹ s⁻¹.

In assay [10], B13 showed a Kd of 1.6 ± 0.1 µM, a koff of 1.4 ± 0.1 s⁻¹ and an on-rate (kon) of 880000 M⁻¹ s⁻¹.

In the case of B14, in assay [1], the affinity, expressed as Kd, was 25 nM; the dH is -19 kcal/mol; the “stoichiometry N” value is around 1.

The record behind these values is paper PMC9163516, “Convergent evolution of a parasite-encoded complement control protein-scaffold to mimic binding of mammalian TGF-β to its receptors, TβRI and TβRII” (The Journal of Biological Chemistry, 2022).
